According to the supplement of paper PMC12764529:
± gives the half width of the 95% confidence interval.

Assays:
[1] = folding stability dG unfold from trypsin proteolysis; higher = more stable
Outline: (§1)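 How resistant each design was to proteolysis was captured as K50, inferred by Bayesian fitting of sequencing counts. Unfolding free energy was then derived relative to a sequence-predicted unfolded-state K50 and a shared folded-state K50, per protease or combined. Digestion used trypsin and chymotrypsin at 11 threefold-diluted concentrations plus a no-protease condition, on mini-proteins under 80 residues without cysteine in a PA-tagged cDNA display construct. Designs were kept only when AlphaFold2 dimer inter-PAE was above 15.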

[2] = folding stability dG unfold (combined trypsin and chymotrypsin); higher = more stable
Outline: as §1

[3] = folding stability dG unfold from chymotrypsin proteolysis; higher = more stable
Outline: as §1

Row | Sequence | folding stability dG unfold [1] | folding stability dG unfold [2] | folding stability dG unfold [3]
1 | SAGGSAGGSAPPPAKVKVITITETRVTYDPDTDELTVETVTLTLVVAPDGHIYVDGRWIPAEDLSAGGSAGG [r6_514_TrROS_Hall] | 2.89 ± 0.064 kcal/mol | 3.37 ± 0.11 kcal/mol | 3.68 ± 0.14 kcal/mol
2 | SAGGSAGGSAPPVVRVTVPLPDGSVLEVEYFPDTGLVRVTLVDADGTPTTVTLPAAEVLALFSAGGSAGGSA [r18_219_TrMRF] | 2.04 ± 0.042 kcal/mol | 2.73 ± 0.045 kcal/mol | 3.026 ± 0.019 kcal/mol
3 | SAGGSAGGSAPRPIEIMFPWDSPEDAHEEAEEIARTFAQEDNIKVKVEYYPREGWVKVKIRVSAGGSAGGSA [r18_368_TrROS] | 1.21 ± 0.085 kcal/mol | 1.38 ± 0.21 kcal/mol | 1.57 ± 0.34 kcal/mol
4 | SAGGSAGGSAPVIRIEVDGKVYEIPADVLKEKGLTIEELAEELEKKHNIKVEKVEDGTIRVTSAGGSAGGSA [r18_7_TrROS_Hall] | 1.66 ± 0.067 kcal/mol | 2.1 ± 0.078 kcal/mol | 2.41 ± 0.039 kcal/mol
5 | SAGGSAGGSAPVPINITFPDGSVAVNGSPDVAYLYFPEKGTIYRIPIDPDTNIITIEEVFKVPSAGGSAGGS [r12_539_TrMRF] | 0.744 ± 0.043 kcal/mol | 0.964 ± 0.05 kcal/mol | 1.03 ± 0.067 kcal/mol
6 | SAGGSAGGSAPYFVRIKIENPDNGKPHSIEIPPNMTPEQAKEMAEELAEMHGWKITDVEYFPSAGGSAGGSA [r18_322_TrROS] | 0.227 ± 0.088 kcal/mol | 0.371 ± 0.068 kcal/mol | 0.433 ± 0.11 kcal/mol
7 | SAGGSAGGSAQWVIRIKMPNGSTRELRIPGMTPEKAREIAKELADQNNIKDVDIYPPGQKISAGGSAGGSAG [r3_160_TrROS] | 0.981 ± 0.041 kcal/mol | 0.727 ± 0.1 kcal/mol | 0.393 ± 0.17 kcal/mol
8 | SAGGSAGGSAREPPEAELVDERERTRPDGRPYTIAILRNPRDPREYLRIPGLGEWYPLDKLSAGGSAGGSAG [r3_181_TrMRF] | -0.574 ± 0.28 kcal/mol | 0.126 ± 0.12 kcal/mol | 0.431 ± 0.22 kcal/mol
9 | SAGGSAGGSARIYVTLPDGTVLEVEFEGEEEAERVAEEIEAELKEKGIEPKSITIEPVSPEEGSAGGSAGGS [r12_301_JUSTAS] | 0.723 ± 0.053 kcal/mol | 1.27 ± 0.16 kcal/mol | 1.69 ± 0.075 kcal/mol
10 | SAGGSAGGSARRDEVVERARERLLEEHPDLKPGETATVVVRDPETDEVYVFRFDGDGRVYGSAGGSAGGSAG [r3_441_TrMRF] | 0.59 ± 0.09 kcal/mol | 1.31 ± 0.16 kcal/mol | 1.59 ± 0.11 kcal/mol
11 | SAGGSAGGSASAEEEARRLAPEGKLVYKITKGNETTIVALTPEEAEALKKKNPDVEIEPILLSAGGSAGGSA [r18_198_JUSTAS] | 1.37 ± 0.035 kcal/mol | 2.81 ± 0.087 kcal/mol | 3.176 ± 0.021 kcal/mol
12 | SAGGSAGGSASAEIVPLTLTFPVKFKKDPNGKTKEKTVEVKIELYVIRDPNGNLYTIAKISLSAGGSAGGSA [r18_284_TrMRF] | 3.01 ± 0.14 kcal/mol | 3.98 ± 0.15 kcal/mol | 4.24 ± 0.089 kcal/mol
13 | SAGGSAGGSASFTTTPVQFPDNTRVTTVTLDPETGTTIATVTSPSATSLVTIPGDTTTLTGSSAGGSAGGSA [r18_212_JUSTAS] | 0.551 ± 0.023 kcal/mol | 0.286 ± 0.045 kcal/mol | -0.246 ± 0.087 kcal/mol
14 | SAGGSAGGSASIEITVKTKEEAKALAEALAKAGLVEVETLPDGSVKITVKPVKVEEVLKPPESAGGSAGGSA [r18_126_TrROS_Hall] | 1.66 ± 0.096 kcal/mol | 2.17 ± 0.29 kcal/mol | 2.61 ± 0.22 kcal/mol
15 | SAGGSAGGSASIPELAEELGLPAEVEVTEDVEPEKPVVYPVVVREPGGGEVRVVPVVLPPGVSAGGSAGGSA [r18_313_JUSTAS] | -0.223 ± 0.14 kcal/mol | 0.922 ± 0.16 kcal/mol | 1.36 ± 0.043 kcal/mol
16 | SAGGSAGGSASITFMLMKFDPEDNRVEVYTYKIKIERDPNGLKKFKIEPVKRQRINPDDLKAISAGGSAGGS [r12_374_TrROS] | 2.13 ± 0.12 kcal/mol | 2.98 ± 0.25 kcal/mol | 3.48 ± 0.09 kcal/mol
17 | SAGGSAGGSASKNGKELEIKIKVDIYPFPGWGIVRVDYEIEYPDGKEQKFDLWIPVPPGDASAGGSAGGSAG [r3_330_TrROS] | 1.65 ± 0.11 kcal/mol | 1.66 ± 0.17 kcal/mol | 1.64 ± 0.088 kcal/mol
18 | SAGGSAGGSASKPYTITLPGNYRIEVYELPDGTYLARIYFPDKPGYYALALLTDNSIYIFPSAGGSAGGSAG [r3_170_TrMRF] | 3.05 ± 0.07 kcal/mol | 3.47 ± 0.068 kcal/mol | 3.691 ± 0.019 kcal/mol
19 | SAGGSAGGSASLEEIKERAREEILKKHPDLPPDEPLTVTVKDPNSSNEYTITFNADGTVVESAGGSAGGSAG [r3_441_JUSTAS] | 0.677 ± 0.027 kcal/mol | 0.837 ± 0.098 kcal/mol | 0.814 ± 0.052 kcal/mol
20 | SAGGSAGGSASMTSSVSTSLNPDNPPVVLVTTTYPDGTVTLTVKDLSTGTTTSTTTTPLPSSAGGSAGGSAG [r3_299_JUSTAS] | 1.17 ± 0.042 kcal/mol | 0.893 ± 0.059 kcal/mol | 0.589 ± 0.043 kcal/mol
21 | SAGGSAGGSASMTTLEIEIELDESDIEKVKEELKKELPKNVKVIIHAYDKNGNIIEEIEIEFSAGGSAGGSA [r18_188_JUSTAS] | 1.33 ± 0.036 kcal/mol | 1.6 ± 0.17 kcal/mol | 1.61 ± 0.097 kcal/mol
